Laboratory results published in US20230374132A1 (Innovent, published 2023).

What was measured:
[1] = biological target: T1, human CD3 complex on Jurkat cells (human, UniProt P07766 23-207; P04234 22-171; P09693 23-182); assay: flow cytometry on Jurkat cells (human CD3 complex), 'Jurkat cell line binding', Example 3.2 [cont) D]
T1 construct: whole, on cells; natural CD3 complex of Jurkat T cells (also used here for CD3 on T cells of human PBMC); also called human CD3 at the cell level; CD3 on T cells
T1 sequence (P07766 23-207, chain 1 of 3): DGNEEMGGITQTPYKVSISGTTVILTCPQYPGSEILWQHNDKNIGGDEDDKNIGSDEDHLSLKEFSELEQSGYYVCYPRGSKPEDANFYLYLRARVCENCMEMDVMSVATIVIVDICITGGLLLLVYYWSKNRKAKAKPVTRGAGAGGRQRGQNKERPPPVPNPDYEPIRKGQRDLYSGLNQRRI
T1 sequence (P04234 22-171, chain 2 of 3): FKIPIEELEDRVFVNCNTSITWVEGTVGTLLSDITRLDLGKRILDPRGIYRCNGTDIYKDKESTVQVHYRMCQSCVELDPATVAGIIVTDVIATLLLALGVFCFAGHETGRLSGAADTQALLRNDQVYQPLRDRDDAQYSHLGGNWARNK
T1 sequence (P09693 23-182, chain 3 of 3): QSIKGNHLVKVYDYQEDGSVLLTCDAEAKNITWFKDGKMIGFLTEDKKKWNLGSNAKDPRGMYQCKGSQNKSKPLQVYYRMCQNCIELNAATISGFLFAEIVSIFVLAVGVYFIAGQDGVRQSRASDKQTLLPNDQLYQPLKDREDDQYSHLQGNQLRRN
Experimental: Jurkat cells are immortalized human T lymphocytes, which express human CD3 complex. The cell line is used to detect the binding of the antibody to the cell. The detailed operation was as follows: Jurkat cells (Promega, J1621) was inoculated into U-shaped 96-well plate, 2×10⁵ for each well. The antibodies to be detected at a series of concentration gradients (the initial concentration of antibody molecule is 500 nM, 3 folds serial dilution) was added into the corresponding cell well, incubated at 4° C. for 30 minutes, and then PBS was used to wash out the unbound part. The sheep anti-human Fc PE fluorescent second antibody (Southern Biotech, J2815-5H87B) was added, then incubated at 4° C. for 15 minutes. and detected by flow cytometry ([…] BD). […] Some of these antibodies were selected to make a further binding curve at cell level.

[2] = biological target: T2, cynomolgus monkey CD3 E&D complex protein (Sino Biological Inc., CT032-00323H) (cynomolgus monkey, UniProt Q95LI5 22-117; Q95LI8 22-105); assay: BLI, antibody on sensor
T2 construct: bought heterodimer
T2 sequence (Q95LI5 22-117, chain 1 of 2): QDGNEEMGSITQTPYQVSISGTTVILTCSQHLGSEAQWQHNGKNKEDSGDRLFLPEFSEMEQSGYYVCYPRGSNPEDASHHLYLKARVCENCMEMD
T2 sequence (Q95LI8 22-105, chain 2 of 2): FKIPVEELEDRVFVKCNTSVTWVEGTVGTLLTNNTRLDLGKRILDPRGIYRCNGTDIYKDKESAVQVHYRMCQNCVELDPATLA
Experimental: (§1) 100 μl SD buffer, various antibodies, human CD3 E&D complex protein (Sino Biological Inc., CT026H0323H), and cynomolgus monkey CD3 E&D complex protein (Sino Biological Inc., CT032-00323H) were added into 96-well black polystyrene semi-quantitative micro-well plate (Greiner, 675076) respectively. Fortebio Octet Red 96 was used for detection, and the sensor position was selected according to the sample position. The setting parameters of the instrument are as follows: operation steps: Baseline, Loading-1 nm, Baseline, Association and Dissociation; the operation time of each step depends on the speed of sample association and dissociation. The rotational speed is 1000 rpm and the temperature is 30° C. ForteBio Octet analysis software was used to analyze KD value.

[3] = biological target: T3, human CD3 E&D complex protein (Sino Biological Inc., CT026H0323H) (human, UniProt P07766 23-126; P04234 22-105); assay: BLI, antibody on sensor
T3 construct: bought heterodimer; also called human CD3 protein (CT026H0323H)
T3 sequence (P07766 23-126, chain 1 of 2): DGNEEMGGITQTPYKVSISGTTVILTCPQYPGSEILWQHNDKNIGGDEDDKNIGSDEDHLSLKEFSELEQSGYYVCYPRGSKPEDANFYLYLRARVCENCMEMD
T3 sequence (P04234 22-105, chain 2 of 2): as the sequence (Q95LI8 22-105, chain 2 of 2) above, with V5I, K15N, V20I, T32S, N33D, N34I, A64T, N74S, L83V counted along it
Experimental: as §1

[4] = biological target: T4, human CD3E&G complex (Sino Biological Inc., CT041-H0305H) (human, UniProt P07766 23-126; P09693 23-116); assay: SPR, antigen on chip
T4 construct: bought heterodimer; also called human CD3E&G antigen
T4 sequence (P07766 23-126, chain 1 of 2): as the sequence (P07766 23-126, chain 1 of 2) above
T4 sequence (P09693 23-116, chain 2 of 2): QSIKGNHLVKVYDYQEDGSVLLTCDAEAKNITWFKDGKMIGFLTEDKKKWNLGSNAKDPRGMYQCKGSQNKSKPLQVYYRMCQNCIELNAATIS
Experimental: (§2) The CD3 equilibrium dissociation constant (KD) of Her2×CD3 bispecific antibody was determined using Biacore (GE Healthcare, T200), and the specific method is as follows:
(§3) The human CD3E&G antigen (Sino Biological Inc., CT041-H0305H) and Cynomolgus monkey CD3E&D antigen protein (Sino Biological Inc., CT032-00323H) were coupled to the chip surface. Afterwards, the affinity and kinetic constants were obtained by detecting the binding and dissociation between the chip surface antigen and the antibody in the mobile phase. The method includes chip preparation and affinity detection. 10-fold diluted 10×HBS-EP+(BR-1006-69, GE Healthcare) was used as the experimental buffer during measurement. […] After coupling, 1 M ethanolamine was injected to block the remaining activation sites. Affinity detection cycle is carried out for each concentration of antibody, and each cycle includes binding to antibody with this concentration and chip regeneration. The antibody after serial dilution (Her2-sp34.24: initial concentration 32 nM, 2 folds serial dilution; Her2-sp34.87: initial concentration 200 nM, 2 folds serial dilution; Her2-sp34.80, Her2-sp34.97, Her2-sp34.99, Her2-sp34.101: initial concentration 800 nM, 2 folds serial dilution; all dilute 5 concentration points), flows through the chip surface from low concentration to high concentration at 30 μl/min of the flow rate, with a binding time of 180 s and a dissociation time of 600 s. Finally, 10 mM Glycine pH 1.5 (BR-1003-54, GE Healthcare) was used to regenerate the chip. The data results were analyzed using the Biacore T200 analysis software (version 3.1), and the analysis model used was 1:1 combined model for dynamic analysis.

[5] = biological target: T2, cynomolgus monkey CD3 E&D complex …; assay: SPR, antigen on chip
Experimental: as §2, §3

| Binder | EC50 [1] [nM] | Kd [2] [nM] | koff [2] [s⁻¹] | kon [2] [M⁻¹ s⁻¹] | Kd [3] [nM] | koff [3] [s⁻¹] | kon [3] [M⁻¹ s⁻¹] | Kd [4] [nM] | koff [4] [s⁻¹] | kon [4] [M⁻¹ s⁻¹] | Kd [5] [nM] | koff [5] [s⁻¹] | kon [5] [M⁻¹ s⁻¹] |
| --- | --- | --- | --- | --- | --- | --- | --- | --- | --- | --- | --- | --- | --- |
| hzsp34.45 (antibody, human IgG1, kappa, L234A L235A, V domains shown, IgG1 L234A L235A, kappa) VH: EVQLVESGGGLVQPGGSLKLSCAASGFTFNTYAMNWVRQASGKGLEWVARIRSKYNNYATYYADSVKDRFTISRDDSKSTLYLQMNSLKTEDTAVYYCARHGNFGQSYVSWFAYWGQGTTVTVSS VL: EIVMTQSPATLSVSPGERATLSCRSSTGAVTTSNYANWVQQKPGQAPRGLIGGTNKRAPGVPARFSGSGSGDEFTLTISSLQSEDFAVYYCALWYSNLWVFGQGTKLTVLR | 122 | 26.9 | 0.00521 | 194000 | 18.4 | 0.0065 | 353000 |  |  |  |  |  |  |
| Her2-hzsp34.97 (bispecific antibody, IgG1, V domains shown, 1+1 trastuzumab x hzsp34.97, IgG1 LALA knob-into-hole; also called Her2-sp34.97; copies: 1 + 1 + 1 + 1) VH 1: not shown VL 1: not shown VH 2: EVQLVESGGGLVQPGGSLKLSCAASGFTFNTYAMNWVRQASGKGLEWVGRIRSKAGGYATYYADSVKDRFTISRDDSKSTLYLQMNSLKTEDTAVYYCARHGNFGQSYVSWFAYWGQGTTVTVSS VL 2: QAVVTQEPSLTVSPGGTVTLTCRSSTGAVTTSNYANWVQQKPGQAPRGLIGGTNKRAPGVPARFSGSLLGDKAALTLLGAQPEDEAEYYCALWYSNLWVFGQGTKLTVL |  |  |  |  |  |  |  | 361 | 0.191 | 528000 | 327 | 0.177 | 543000 |
| hzsp34.40 (antibody, human IgG1, kappa, L234A L235A, V domains shown, IgG1 L234A L235A, kappa) VH: EVQLVESGGGLVQPGGSLKLSCAASGFTFNTYAMNWVRQASGKGLEWVARIRSKYNNYATYYADSVKDRFTISRDDSKSTLYLQMNSLKTEDTAVYYCARHGNFGQSYVSWFAYWGQGTTVTVSS VL: EIVMTQSPATLSVSPGERATLSCRSSTGAVTTSNYANWVQQKPGQAPRGLIGGTNKRAPGVPARFSGSGSGTEFTLTISSLQSEDFAVYYCALWYSNLWVFGQGTKLTVLR | 91.9 | 15.3 | 0.003 | 196000 | 16.8 | 0.00515 | 307000 |  |  |  |  |  |  |
| Her2-hzsp34.80 (bispecific antibody, IgG1, V domains shown, 1+1 trastuzumab x hzsp34.80, IgG1 LALA knob-into-hole; also called Her2-sp34.80; copies: 1 + 1 + 1 + 1) VH 1: not shown VL 1: not shown VH 2: EVQLVESGGGLVQPGGSLKLSCAASGFTFNTAAMNWVRQASGKGLEWVGRIRSKYNNYATYYADSVKDRFTISRDDSKSTLYLQMNSLKTEDTAVYYCARHGNFGQSYVSWFAYWGQGTTVTVSS VL 2: QAVVTQEPSLTVSPGGTVTLTCRSSTGAVTTSNYANWVQQKPGQAPRGLIGGTNKRAPGVPARFSGSLLGDKAALTLLGAQPEDEAEYYCALWYSNLWVFGQGTKLTVL |  |  |  |  |  |  |  | 987 | 0.491 | 497000 | 1310 | 0.78 | 596000 |
| hzsp34.42 (antibody, human IgG1, kappa, L234A L235A, V domains shown, IgG1 L234A L235A, kappa) VH: EVQLVESGGGLVQPGGSLKLSCAASGFTFNTYAMNWVRQASGKGLEWVGRIRSKYNNYATYYADSVKDRFTISRDDSKNTLYLQMNSLKTEDTAVYYCARHGNFGNSYVSWFAYWGQGTTVTVSS VL: EIVMTQSPATLSVSPGERATLSCRSSTGAVTTSNYANWVQQKPGQAPRGLIGGTNKRAPGVPARFSGSGSGDEFTLTISSLQSEDFAVYYCALWYSNLWVFGQGTKLTVLR | 39.2 | 10.2 | 0.00248 | 243000 | 14.7 | 0.00526 | 357000 |  |  |  |  |  |  |
| Her2-hzsp34.99 (bispecific antibody, IgG1, V domains shown, 1+1 trastuzumab x hzsp34.99, IgG1 LALA knob-into-hole; also called Her2-sp34.99; copies: 1 + 1 + 1 + 1) VH 1: not shown VL 1: not shown VH 2: EVQLVESGGGLVQPGGSLKLSCAASGFTFNTYAMNWVRQASGKGLEWVGRIRSKYNNYATYYADSVKDRFTISRDDSKSTLYLQMNSLKTEDTAVYYCARHGNAYQSYVSWFAYWGQGTTVTVSS VL 2: QAVVTQEPSLTVSPGGTVTLTCRSSTGAVTTSNYANWVQQKPGQAPRGLIGGTNKRAPGVPARFSGSLLGDKAALTLLGAQPEDEAEYYCALWYSNLWVFGQGTKLTVL |  |  |  |  |  |  |  | 627 | 0.0817 | 130000 | 1200 | 0.1 | 83400 |
